# Patent US20220195015A1 (published 2022)
# B1: C568 (antibody, V domains shown)
# VH: QVQLVQSGAEVKKPGASVKVSCTASGYTFSSYYIHWVRQAPGQGLEWMGIINPGAGSTSYAQKFQGRVAMTTDTSTRTVYMELSSLRSDDTAVYYCARDEAFLPSAIFVGDYWGQGTLVTVSS
# VL: DIQMTQSPSSLSASVGDRVTITCRASQGIRNDLGWYQQKPGKAPKRLIYAASNLQSGVPSRFSGSGSGTEFTLTISSLQPEDFATYYCLQHSTYPHTWTFGQGTKVEIK
# B2: C566 (antibody, V domains shown)
# VH: QVQLQESGPGLVKSSQTLSLNCSVFGASISSGGYYWTWIRQHPGKGLEWIGYIHYRGTYYNPSLKSRVTMSVDTSKNQFSLKVRSVSAADTAIYYCARAIVVVTLNWFDLWGQGTLVTVSS
# VL: NFMLTQPHSVSESPGKTVTISCSGSGGSIASNYVQWYQQRPGSAPTAVIYEDNQRPSGVPDRFSGSIDSSSNSASLTISGLKTEDEADYYCQSYDTSNPVIFGGGTKLTV
# B3: C593 (antibody, V domains shown)
# VH: QVQLVQSGAEVKKPGASVKVSCKASGYTFTSYDINWVRQAPGQGLEWMGWMNPNSGNTDYAQKFQGRFTMTRNTSISTAYMELSSLRSEDTAVYYCASRRWDPLTFYYYMVVWGKGTTVTVSS
# VL: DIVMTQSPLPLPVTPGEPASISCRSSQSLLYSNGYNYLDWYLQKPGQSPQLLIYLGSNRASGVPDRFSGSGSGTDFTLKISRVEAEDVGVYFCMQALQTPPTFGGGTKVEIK
# B4: C577 (antibody, V domains shown)
# VH: QVQLVQSGAEVKKPGSSVKVSCKASGDTFSIYAFSWVRQAPGQGLQWMGAIIPLLGTTNYAQKFLGRVTITADESTSTTFMELSSLTSEDTAVYHCATFHVAYGDYIPFDSWGQGTLVIVSS
# VL: not shown
# B5: C596 (antibody, V domains shown)
# VH: QVQLVESGGGVVQPGRSLRLSCAASGITFSHYGMHWVRQAPGKGLEWVALISSDGSKKYYADSVKGRFTISRDNSKSTLYLQMNSLRAEDTAIYYCAKDLGYYYGPPYGPDYWGQGTLVTVSS
# VL: DIQMTQSPSSLSASVGDRVTITCQASQDVSNSLNWYQQKPGKAPKLLIYDASNLETGVPSRFSGSGSGTDFSFTISSLQPEDIATYYCLQYDNFSMYTFGQGTKLEIK
# B6: C570 (antibody, V domains shown)
# VH: QVQLQESGPGLVKPSETLSLTCTVSGASISSYYWSWIRQPPGKGLEWIGYIYYSGSTNYNPSLKSRVTISLDTSKNQFSLQLSSVTAADTAVYYCATYYFDNSGYSYGLDVWGQGTTVTVSS
# VL: DIQMTQSPSSLSASVGDRVTIACRASQSISSYLHWYQQQPGKAPKLLIYAVTNLQSGVPSRFSGSGSGTDFTLTISSLQPEDFATYYCQQSYSLPQTFGQGTKVEIK
# B7: C594 (antibody, V domains shown)
# VH: QVQLVESGGGVVQPGRSLRLSCAASGFTFSSYGMHWVRQAPGKGLEWVAVISDDGSNKYYADSVKGRFTISRDNSKNTLYLQMNSLRAEDTAVYYCAKSWWLSENWFDPWGQGTLVTVSS
# VL: EIVMTQSPATLSVSPGERATLSCRASQSVSSNLAWYQQKPGQAPRLLIYGASTRATGIPARFSGTGSGTEFTLTISSLQSEDFAVYYCQQYNNWPLTFGGGTKVEIK
# B8: C595 (antibody, V domains shown)
# VH: QVQLVESGGGVVQAGRSLRLSCAASGFTFSSFGLHWVRQAPGKGLEWVAVISDDGANKYYADSVKGRFTISRDNSKNTLYLQMNSLRADDTAKYYCAKSWWLSENWFDPWGQGTLVTVSS
# VL: EIVMTQSPATLSVSPGERATLSCRASQSVRSNLAWYQQKPGQAPRLLIYGASTRATGIPARFSGSGSGTDFTLTISSLQSEDFAVYYCQQYNNWPLTFGGGTKVEIK
# B9: C569 (antibody, V domains shown)
# VH: QVQLVESGGNVVQPGRSLRLSCAASGFTFSNYGMHWIRQAPGKGLEWVAVISYDGSDKYYADSVKGRVTISRDNSKNTLYLQMNSLRAEDTAVYYCAKGGPYGDHVRSDYWGLGTLVTVSS
# VL: DIQMTQSPSSLSASVGDRVTITCQASQDISNYLNWYQQKPGKVPKLLIYDASNLETGVPSRFSGSGSGTDFTFTISSLQPEDIATYYCQQFHNLPLTFGQGTKLEIK
# B10: C057 (antibody, V domains shown)
# VH: QVQLVQSGAEVKRPGASVKLSCKASGYIFTDYSIHWVRQAPGQGLEWMGWVNPNSGGGNSAQKFMDWVTMARDTSITTVYMELSRLRSDDTAVYYCARGPLFHKLVYDSWSGYHDGFDIWGQGTMVTVSS
# VL: QSALTQPASVSGSPGQSITISCTGTSSDVGAYKFVSWYQQHPGKAPQLIIYEVSNRPSGVSNRFSGSKSGNTASLTISGLQAEDEADYYCSSYTNASTWVFGGGTELTVL
# B11: C565 (antibody, V domains shown)
# VH: EVQLVESGGGLIQPGGSLRLSCAASGLIVSSNYMNWVRQAPGKGLEWVSLLYSGGSTYYADSVKGRFTISRDNSKNTLYLQMNSLRPEDTAVYYCARDLSVVGAFDIWGQGTMVTVSS
# VL: EIVLTQSPGTLSLSPGERATLSCRASQSLPSTYLAWYQQKRGQAPRLLIYGASSRATGIPDRFSGSGSGTDFTLTISRLEPEDFAVYYCQQYGTSPRVTFGPGTKVDIK
# B12: C580 (antibody, V domains shown)
# VH: EVQLVQSGAEVKKAGESLKISCNSSGYSFTNYWIAWVRQVPGKGLEWMGIIYLGDSDTRYSPSFQGRVTISADKSISAAYLHWSSLKASDTAIYYCARGGPPGGVKLELTDFWGQGTLVTVSS
# VL: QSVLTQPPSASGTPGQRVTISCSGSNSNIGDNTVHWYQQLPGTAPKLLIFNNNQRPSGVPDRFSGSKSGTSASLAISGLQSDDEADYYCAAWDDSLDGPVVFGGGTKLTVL
# B13: C581 (antibody, V domains shown)
# VH: EVQLVQSGAEVKKPGESLKISCKGSGYRFTSYWIAWVRQMPGKGLEWMGIIYPGDSDTRYSPSFQGQVTISADQSISTAYLQWSSLKASDTAMYYCARGGPPGGVKLELTDYWGQGALVTVSS
# VL: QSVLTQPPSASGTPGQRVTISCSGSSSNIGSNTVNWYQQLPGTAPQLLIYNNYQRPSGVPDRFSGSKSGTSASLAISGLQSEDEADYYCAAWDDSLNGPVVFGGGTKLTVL
# B14: C578 (antibody, V domains shown)
# VH: QVQLVESGGGVVQPGRSLRLSCAASGFTFSSSGMHWVRQAPGKGLEWVAIISYDGSNKYYADSVKGRFTISRDNSKNTLSLQMNSLRAEDTAVYYCAKDPLPFRDFFYYYMDVWGKGTTVTVSS
# VL: QSALTQPASVSGSPGQSITISCTGTSSDVGGYNYVSWYQQHPGKAPKLMIYDVSNRPSGVSNRFSGSKSGNTASLTISGLQAEDEADYYCSSYTSSSTLGVFGTGTKVTVL
# B15: C567 (antibody, V domains shown)
# VH: QVQLQESGPGLVKPSETLSLTCTVSGGSVINGSYYWSWIRQPPGKGLEWIGFVYYSGSTNYNPSLKSRVTISVDTSKNQFSLNLNSVTAADTAVYYCATGSKSSYYFDYWGQGTLVTVSS
# VL: QSVLTQPPSVSAAPGQKVTISCSGSSSNIGNNYVSWYQQLPGAAPKLLIYENNMRPSGIPDRFSGSKSGTSATLGITGLQTGDEADYYCGTWDSSLSVPYVFGTGTRVTVL
# B16: C591 (antibody, V domains shown)
# VH: QVQLVQSGAEVKKPGASVKVSCKASGYILTDYFIHWVRQAPGQGLEWMGWINPNSGGTNYAQKFQGRVTMTRDTSISTAYMELSRLRSDDTAVYHCARYKGTTVNTNYYYGMDVWGQGTTVTVSS
# VL: not shown
# B17: C592 (antibody, V domains shown)
# VH: QVQLVQSGAEVKKPGASVKVSCKASGYTFTDYFNHWVRQAPGQGLEWMGWINPNSGGTNSAQKFQGRVTMTRDTSITTVYMELSRLRSDDTAVYYCARYKGTTVNTNYYYGMDVWGQGTTVTVSS
# VL: SYELTQPPSVSVSPGQTASITCSGDKLRNKYACWYQQKAGQSPMLVIYQDTKRPSGIPERFSGSNSGNTATLTISGTQAMDEADYYCQAWDISTVVFGGGTKLTVL
# Columns and labels:
# [1] = biological target: SARS-CoV-2 spike receptor binding domain (RBD), wild type (SARS-CoV-2, UniProt P0DTC2 319-539); assay: ELISA, RBD protein coated, mAb titrated
# [2] = biological target: SARS-CoV-2 receptor binding domain (RBD), wild type (SARS-CoV-2, UniProt P0DTC2 319-539); assay: ELISA, RBD protein coated, mAb titrated
Binder,EC50 [1] [ng/mL],EC50 [2] [ng/mL]
B1,5.99,–
B2,5.88,–
B3,4.36,–
B4,1.32,–
B5,21,–
B6,0.74,–
B7,2.63,–
B8,2.04,–
B9,11.1,–
B10,–,2.31
B11,1.27,–
B12,1.81,–
B13,1.58,–
B14,1.08,–
B15,18.9,–
B16,3.83,–
B17,6,–
